Biological target: the molecule itself
Assay: native gel or EMSA

B1: Strep-tagged VP40[change] (VP40 truncated after residue 194) (domain or fragment)
chain: MRRVILPTAPPEYMEAIYPVRSNSTIARGGNSNTGFLTPESVNGDTPSNPLRPIADDTIDHASHTPGSVSSAFILEAMVNVISGPKVLMKQIPIWLPLGVADQKTYSFDSTTAAIMLASYTITHFGKATNPLVRVNRLGPGIPDHPLRLLRIGNQAFLQEFVLPPVQLPQYFTFDLTALKLITQPLPAATWTDD
stoichiometry N: 8
